Assays:
HLA-A*11:01 [1] = assay: IEDB peptide-MHC binding, purified MHC/competitive/radioactivity; filed as Kd, often an IC50 or EC50 that approximates it; ≥ and ≤ were set here for values at or beyond the usual limits of such assays; details: source organism: Dengue virus 1 Singapore/S275/1990
HLA-A*03:01 [2] = assay: as above; details: source organism: Dengue virus 1 Singapore/S275/1990
HLA-B*58:01 = assay: as above
HLA-A*11:01 [3] = assay: IEDB peptide-MHC binding, purified MHC/direct/fluorescence; filed as Kd, often an IC50 or EC50 that approximates it; ≥ and ≤ were set here for values at or beyond the usual limits of such assays
HLA-A*03:01 [4] = assay: as above
HLA-A*31:01 = assay: IEDB peptide-MHC binding, purified MHC/competitive/fluorescence; filed as Kd, often an IC50 or EC50 that approximates it; ≥ and ≤ were set here for values at or beyond the usual limits of such assays
HLA-B*15:03 = assay: IEDB peptide-MHC binding, purified MHC/competitive/radioactivity; filed as Kd, often an IC50 or EC50 that approximates it; ≥ and ≤ were set here for values at or beyond the usual limits of such assays
HLA-A*32:01 = assay: as above
HLA-B*15:01 [5] = assay: as above
HLA-A*30:01 = assay: as above
HLA-B*08:01 = assay: as above
HLA-A*02:12 = assay: IEDB peptide-MHC binding, purified MHC/direct/fluorescence; filed as Kd, often an IC50 or EC50 that approximates it; ≥ and ≤ were set here for values at or beyond the usual limits of such assays
HLA-A*02:19 = assay: as above
HLA-A*02:03 = assay: as above
HLA-A*26:01 = assay: as above
HLA-A*02:11 = assay: as above
HLA-A*02:16 = assay: as above
HLA-A*68:02 = assay: as above; details: source organism: Orthohantavirus andesense
HLA-B*39:01 = assay: IEDB peptide-MHC binding, purified MHC/competitive/fluorescence; filed as Kd, often an IC50 or EC50 that approximates it; ≥ and ≤ were set here for values at or beyond the usual limits of such assays
HLA-B*27:03 = assay: as above
HLA-B*51:01 = assay: as above
HLA-B*46:01 = assay: as above
HLA-B*57:01 = assay: as above
HLA-A*69:01 = assay: as above
HLA-B*18:01 = assay: as above
HLA-A*02:01 [6] = assay: as above
HLA-A*24:02 = assay: IEDB peptide-MHC binding, purified MHC/competitive/fluorescence; ≥ and ≤ were set here for values at or beyond the usual limits of such assays
HLA-B*15:01 [7] = assay: as above
HLA-B*15:17 = assay: IEDB peptide-MHC binding, purified MHC/competitive/fluorescence; filed as Kd, often an IC50 or EC50 that approximates it; ≥ and ≤ were set here for values at or beyond the usual limits of such assays; details: source organism: Araucaria virus
HLA-B*53:01 = assay: IEDB peptide-MHC binding, purified MHC/competitive/radioactivity; filed as Kd, often an IC50 or EC50 that approximates it; ≥ and ≤ were set here for values at or beyond the usual limits of such assays
HLA-A*11:01 [8] = assay: IEDB peptide-MHC binding, purified MHC/competitive/fluorescence; ≥ and ≤ were set here for values at or beyond the usual limits of such assays; details: source organism: Zaire ebolavirus
HLA-A*02:01 [9] = assay: as above
HLA-B*35:01 = assay: IEDB peptide-MHC binding, purified MHC/competitive/radioactivity; filed as Kd, often an IC50 or EC50 that approximates it; ≥ and ≤ were set here for values at or beyond the usual limits of such assays; details: source organism: Dengue virus 1 Singapore/S275/1990
[10] = source organism: Dengue virus 1 Singapore/S275/1990
[11] = source organism: Escherichia coli O157:H7
[12] = source organism: Vaccinia virus WR
[13] = source organism: Orthohantavirus andesense
[14] = source organism: West Nile virus
[15] = source organism: Vaccinia virus
[16] = source organism: Araucaria virus
[17] = source organism: Vaccinia virus Copenhagen
[18] = source organism: Sudan ebolavirus
[19] = source organism: Campylobacter jejuni
[20] = source organism: Mammarenavirus lassaense
[21] = source organism: Dengue virus 1 Brazil/97-11/1997
[22] = source organism: Zaire ebolavirus
[23] = source organism: Influenza A virus (A/swine/Korea/S190/2004(H9N2))

Sequence: ASSMVNGVVK
- Kd (HLA-A*11:01 [1]): 0.0304 µM
- Kd (HLA-A*03:01 [2]): 0.325 µM
- Kd (HLA-B*58:01; [10]): 2.79 µM

Sequence: ATREGKHGK
- Kd (HLA-A*11:01 [3]; [11]): 0.254 µM
- Kd (HLA-A*03:01 [4]; [11]): 0.301 µM
- Kd (HLA-A*31:01; source organism: Shewanella baltica OS155): 0.0813 µM

Sequence: AVAKYFSPL
- Kd (HLA-B*15:03; [12]): 0.235 µM
- Kd (HLA-A*32:01; [12]): 0.283 µM
- Kd (HLA-B*15:01 [5]; [12]): 0.016 µM
- Kd (HLA-A*30:01; [12]): 8.98 µM
- Kd (HLA-B*08:01; [12]): 0.189 µM

Sequence: AVEDFLAFF
- Kd (HLA-A*02:12; [13]): ≥ 20 µM
- Kd (HLA-A*02:19; [13]): ≥ 20 µM
- Kd (HLA-A*03:01 [4]; [13]): ≥ 20 µM
- Kd (HLA-A*02:03; [13]): ≥ 20 µM
- Kd (HLA-A*26:01; [13]): 1.39 µM
- Kd (HLA-A*02:11; [13]): ≥ 20 µM
- Kd (HLA-A*02:16; [13]): ≥ 20 µM
- Kd (HLA-A*68:02): ≥ 20 µM
- Kd (HLA-B*39:01; [13]): ≥ 20 µM
- Kd (HLA-B*27:03; [13]): ≥ 20 µM
- Kd (HLA-B*51:01; [13]): ≥ 20 µM
- Kd (HLA-B*46:01; [13]): ≥ 20 µM
- Kd (HLA-B*57:01; [13]): ≥ 20 µM
- Kd (HLA-A*69:01; [13]): ≥ 20 µM
- Kd (HLA-B*18:01; [13]): ≥ 20 µM
- Kd (HLA-A*02:01 [6]; [13]): ≥ 20 µM

Sequence: FKAMWKYPF
- Kd (HLA-B*15:03; [12]): 0.000109 µM

Sequence: FTRCAVIPF
- Kd (HLA-B*15:03; [12]): 0.0054 µM

Sequence: GLYKSAPRR
- Kd (HLA-A*11:01 [3]; [14]): ≥ 20 µM
- Kd (HLA-A*31:01; [14]): 0.197 µM

Sequence: GTSGTEKEF
- IC50 (HLA-A*24:02; [15]): ≥ 205 µM
- IC50 (HLA-B*15:01 [7]; [15]): ≥ 401 µM

Sequence: GVPELGAFF
- Kd (HLA-A*02:12; [16]): ≥ 20 µM
- Kd (HLA-A*02:19; [16]): ≥ 20 µM
- Kd (HLA-A*03:01 [4]; [16]): ≥ 20 µM
- Kd (HLA-A*02:03; [16]): ≥ 20 µM
- Kd (HLA-A*26:01; source organism: Itapua hantavirus): 0.207 µM
- Kd (HLA-A*02:11; [16]): ≥ 20 µM
- Kd (HLA-A*02:16; [16]): ≥ 20 µM
- Kd (HLA-B*39:01; [16]): ≥ 20 µM
- Kd (HLA-B*27:03; [16]): ≥ 20 µM
- Kd (HLA-B*51:01; [16]): ≥ 20 µM
- Kd (HLA-B*46:01; [16]): ≥ 20 µM
- Kd (HLA-B*57:01; [16]): ≥ 20 µM
- Kd (HLA-A*69:01; [16]): ≥ 20 µM
- Kd (HLA-B*18:01; [16]): ≥ 20 µM
- Kd (HLA-A*02:01 [6]; [16]): ≥ 20 µM
- Kd (HLA-B*15:17): ≥ 20 µM

Sequence: HVKSTLNNA
- Kd (HLA-B*15:03; [12]): 0.376 µM
- Kd (HLA-A*32:01; [12]): ≥ 41.7 µM
- Kd (HLA-B*15:01 [5]; [12]): 0.366 µM
- Kd (HLA-A*30:01; [12]): 0.00115 µM
- Kd (HLA-B*08:01; [12]): 1.53 µM

Sequence: IASLPTYLSS
- Kd (HLA-B*58:01; source organism: Dengue virus 4 Philippines/H241/1956): ≥ 36.3 µM

Sequence: IHFMREYWF
- Kd (HLA-B*15:03; [17]): 0.222 µM
- Kd (HLA-A*32:01; [17]): 12.4 µM
- Kd (HLA-B*15:01 [5]; [17]): 6.91 µM
- Kd (HLA-A*30:01; [17]): 0.0449 µM
- Kd (HLA-B*08:01; [17]): 8.05 µM

Sequence: IKYACKQIL
- Kd (HLA-B*15:03; [12]): 0.252 µM
- Kd (HLA-A*32:01; [12]): 10.7 µM
- Kd (HLA-B*15:01 [5]; [12]): 6.87 µM
- Kd (HLA-A*30:01; [12]): 2.11 µM
- Kd (HLA-B*08:01; [12]): 8.67 µM

Sequence: ILAKPKETF
- IC50 (HLA-A*24:02; [18]): 0.5 µM
- IC50 (HLA-B*15:01 [7]; [18]): ≥ 102 µM

Sequence: IMLEYPHFK
- Kd (HLA-A*11:01 [3]; [19]): 0.0018 µM
- Kd (HLA-A*03:01 [4]; [19]): 0.0229 µM
- Kd (HLA-A*31:01; source organism: Campylobacter jejuni subsp. jejuni NCTC 11168 = ATCC 700819): 0.0136 µM

Sequence: IQRTYSSSI
- Kd (HLA-B*15:03; [12]): 0.00083 µM

Sequence: IQTLNGKHF
- Kd (HLA-B*15:03; [12]): 0.0114 µM

Sequence: ITLTNVVNI
- Kd (HLA-B*15:03; [12]): 0.0218 µM
- Kd (HLA-A*32:01; [12]): 0.0771 µM
- Kd (HLA-B*15:01 [5]; [12]): 0.0116 µM
- Kd (HLA-A*30:01; [12]): 0.0346 µM
- Kd (HLA-B*08:01; [12]): 4.49 µM

Sequence: KEFLRYLLF
- IC50 (HLA-A*24:02; [15]): 0.381 µM
- IC50 (HLA-B*15:01 [7]; [15]): ≥ 277 µM

Sequence: KLIDIALSK
- Kd (HLA-A*11:01 [3]; [20]): 0.0012 µM
- Kd (HLA-A*03:01 [4]; [20]): 0.639 µM
- Kd (HLA-A*31:01; source organism: Lassa virus Josiah): 0.142 µM

Sequence: KLTSTETSF
- Kd (HLA-B*15:03; [12]): 0.0254 µM

Sequence: KSNIEETKF
- IC50 (HLA-B*15:01 [7]; [15]): ≥ 481 µM

Sequence: KTFVELMRR
- Kd (HLA-A*11:01 [3]; [10]): 0.0162 µM
- Kd (HLA-A*31:01; source organism: dengue virus type 1): ≤ 0.001 µM

Sequence: LLIMGQLTW
- Kd (HLA-B*53:01; [21]): 0.342 µM
- Kd (HLA-B*58:01; [21]): 0.0111 µM

Sequence: LPTNEFISF
- Kd (HLA-B*15:03; [12]): 0.0337 µM

Sequence: LSFASLFLP
- IC50 (HLA-A*11:01 [8]): ≥ 179 µM
- IC50 (HLA-A*24:02; [22]): 11.1 µM
- IC50 (HLA-B*15:01 [7]; [22]): ≥ 97.8 µM
- IC50 (HLA-A*02:01 [9]; [22]): 2.67 µM

Sequence: MASSVLLWM
- Kd (HLA-B*53:01; [10]): 0.00061 µM
- Kd (HLA-B*58:01; [10]): 0.0003 µM
- Kd (HLA-B*35:01): 0.0566 µM

Sequence: QMTSTFIML
- IC50 (HLA-A*24:02; [17]): 0.224 µM
- IC50 (HLA-B*15:01 [7]; [17]): 30.2 µM

Sequence: RFNVPGTWR
- Kd (HLA-A*11:01 [3]; [11]): ≥ 20 µM
- Kd (HLA-A*03:01 [4]; [11]): 1.92 µM
- Kd (HLA-A*31:01; source organism: Escherichia coli K-12): 0.00127 µM

Sequence: RQNRSQYLF
- Kd (HLA-B*15:03; [17]): 0.000137 µM

Sequence: SMNTIKQSF
- Kd (HLA-B*15:03; [12]): 0.0165 µM
- Kd (HLA-A*32:01; [12]): 0.293 µM
- Kd (HLA-B*08:01; [12]): 0.449 µM

Sequence: SVAPGTDFR
- Kd (HLA-A*11:01 [3]; [11]): 0.0018 µM
- Kd (HLA-A*03:01 [4]; [11]): 0.506 µM
- Kd (HLA-A*31:01; source organism: Escherichia coli O157:H7 str. EDL933): 0.007 µM

Sequence: TTHSWIPKR
- Kd (HLA-A*11:01 [3]; [23]): 0.132 µM
- Kd (HLA-A*03:01 [4]; [23]): 2.83 µM
- Kd (HLA-A*31:01; source organism: Influenza A virus (A/Fort Monmouth/1/1947-mouse adapted(H1N1))): 0.0023 µM

Sequence: VGLITCKAF
- IC50 (HLA-A*24:02; [12]): 7.71 µM
- IC50 (HLA-B*15:01 [7]; [12]): 57.3 µM
- IC50 (HLA-A*02:01 [9]; [12]): ≥ 1310 µM

Source: the Immune Epitope Database (IEDB)
